# Measured values from publication PMC10506094.
# What was measured:
# [1] = target: Loa22 of L. borgpetersenii sv. Ballum str. M2, endogenous (Leptospira borgpetersenii sv. Ballum str. M2 (endogenous in cultivated cells)); assay: SDS-PAGE and immunoblot of whole cell lysates; Leptospira cells in SDS-PAGE buffer (4% SDS, 2% β-ME), sonicated and heated (10 min, 99 °C); blot screened with anti-Loa22_(27-197) antiserum; oligomer read from the size of the bands
# [2] = target: Loa22 of L. interrogans sv. Canicola str. Kito, endogenous (Leptospira interrogans sv. Canicola str. Kito (endogenous in cultivated cells)); assay: as above
# [3] = target: Loa22 of L. interrogans sv. Copenhageni str. Fiocruz L1-130, endogenous (Leptospira interrogans sv. Copenhageni str. Fiocruz L1-130 (endogenous in cultivated cells)); assay: as above
# [4] = target: Loa22 of L. interrogans sv. Pomona str. LC82-25, endogenous (Leptospira interrogans sv. Pomona str. LC82-25 (endogenous in cultivated cells)); assay: as above
# [5] = target: Loa22 of L. kirschneri sv. Grippotyphosa str. RM52, endogenous (Leptospira kirschneri sv. Grippotyphosa str. RM52 (endogenous in cultivated cells)); assay: as above
# [6] = target: Loa22 of L. noguchii sv. Autumnalis str. Bonito, endogenous (Leptospira noguchii sv. Autumnalis str. Bonito (endogenous in cultivated cells)); assay: as above
# [7] = SEC; TSKgel G4000SWXL column, PBS as mobile phase, 1.0 mL/min; 50 µg recombinant protein injected (25 µL); MW from a standard curve of globular proteins; fractions checked by SDS-PAGE and immunoblot with anti-Loa22_(27-197) antiserum
# [8] = target: recombinant Loa22_(27-197) (Leptospira OmpA-like 22 kDa protein) of L. interrogans sv. Copenhageni str. Fiocruz L1-130 (Leptospira interrogans sv. Copenhageni str. Fiocruz L1-130); assay: as above
substance,measurement,setting,value
"Loa22 of L. borgpetersenii sv. Ballum str. M2, endogenous (natural protein)",stoichiometry N,[1],3
"Loa22 of L. interrogans sv. Canicola str. Kito, endogenous (natural protein)",stoichiometry N,[2],3
"Loa22 of L. interrogans sv. Copenhageni str. Fiocruz L1-130, endogenous (natural protein)",stoichiometry N,[3],3
"Loa22 of L. interrogans sv. Pomona str. LC82-25, endogenous (natural protein)",stoichiometry N,[4],3
"Loa22 of L. kirschneri sv. Grippotyphosa str. RM52, endogenous (natural protein)",stoichiometry N,[5],3
"Loa22 of L. noguchii sv. Autumnalis str. Bonito, endogenous (natural protein)",stoichiometry N,[6],3
recombinant Loa22_(27-197) (Leptospira OmpA-like 22 kDa protein) of L. interrogans sv. Copenhageni str. Fiocruz L1-130,percent of the protein as monomer (area under the SEC peaks),[7],a majority of the recombinant protein exists as a monomer (89% of the total)
recombinant Loa22_(27-197) (Leptospira OmpA-like 22 kDa protein) of L. interrogans sv. Copenhageni str. Fiocruz L1-130 (domain or fragment),stoichiometry N,[8],3
